Where no end group is shown, it is not given here.
Legend:
His-tagged human PCNA [1] = target: T1, His-tagged human PCNA (human, UniProt P12004 1-261); assay: pull-down; GST-tagged ERCC6L2 753-819 immobilised on GST-beads, incubated with purified His-tagged PCNA 1 h at 4°C in 50 mM Tris-HCl pH 8, 150 mM NaCl, 1 mM DTT, 0.2% Triton X-; Western blot against PCNA; conditions: both partners purified
T1 construct: PCNA, human; cloned into the NdeI and XhoI sites of pET28a for the protein with N-terminal His-tag; The ITC methods say only 'PCNA'; the paragraph on purification of His-tagged PCNA describes the preparation for ITC; also called recombinant PCNA; source: E. coli Rosetta (pET28a), purified (Ni-NTA, Q-sepharose, Superdex S-200); not shown: His-tag, N-terminal, kept
T1 sequence (P12004 whole entry): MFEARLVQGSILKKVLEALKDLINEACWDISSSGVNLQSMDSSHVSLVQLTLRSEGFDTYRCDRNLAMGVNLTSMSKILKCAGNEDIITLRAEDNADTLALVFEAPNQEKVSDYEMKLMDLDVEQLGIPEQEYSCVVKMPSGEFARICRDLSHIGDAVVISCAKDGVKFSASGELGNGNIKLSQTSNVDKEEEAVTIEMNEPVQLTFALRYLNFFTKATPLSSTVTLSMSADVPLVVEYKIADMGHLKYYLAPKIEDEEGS

U2OS cells = assay: Nuclear patterns resembling replication foci of YFP-ERCC6L2 truncations; format: cell-based, human; conditions: YFP-tagged fragments
Excerpt: Figure 4 ERCC6L2 contains an atypical PCNA-binding motif (A) ERCC6L2 colocalizes with PCNA at CENP-C-negative foci. U2OS cells transfected with YFP-ERCC6L2 were stained for CENP-C and PCNA after pre-extraction of soluble proteins. ERCC6L2-and PCNA-positive, but CENP-C negative foci (red arrows) are marked in zoomed images. (B) ERCC6L2 colocalizes with RPA at CENP-C-negative foci. U2OS cells transfected with YFP-ERCC6L2 were stained for CENP-C and RPA. ERCC6L2- and RPA-positive, but CENP-C-negative foci (red arrows) are marked in zoomed images. (C) Colocalization of the C-terminal ERCC6L2^701−1561 fragment with endogenous PCNA. (D) PCNA pull-down with biotinylated peptides. Biotinylated PIP-box and APIM motif peptides were bound to streptavidin beads and incubated with recombinant PCNA. Interactions were assayed by western blotting with PCNA antibody. Wild-type ZRANB3 PIP-box peptide (ZRANB3 PIP) was used as a positive control. Mutant ZRANB3 PIP-box peptide (Q519A, F525A, and F526A, ZRANB3 PIP^∗) served as a negative control. ERCC6L2 aPIP and ERCC6L2 aPIP^∗ denote atypical ERCC6L2 peptides (residues 790–811) containing the WT and the Q798A mutant sequences, respectively. (E) Expression patterns of the indicated C-terminal YFP-ERCC6L2 constructs. […] (F) PCNA pull-down with GST-tagged peptides. Wild-type and Q798A mutant versions of the GST-tagged ERCC6L2 fragments (residues 753–819) were immobilized on GST beads (shown on the left) and incubated with recombinant PCNA. Interactions were assessed by western blotting against PCNA (shown on the right). (G) Schematic representation of different ERCC6L2 fragments tested for formation of PCNA-like foci. A region at the N terminus of fragment 701–1,098 is zoomed below to show sequence alignment of different ERCC6L2 proteins. The conserved atypical PIP-box is marked in a green frame. Targeted mutation sites are indicated by red arrows. (H) Colocalization of YFP-ERCC6L2 wild type, ATPase dead K165 ERCC6L2, and aPIP^∗ mutant (Q798A, C804A, F806A) with CENP-A. N(cells) > 1,400. (I) Colocalization of YFP-ERCC6L2 wild type, ATPase dead K165 ERCC6L2, and aPIP^∗ mutant (Q798A, C804A, F806A) with CENP-B. N(cells) > 1,000. (J) Front and side views of the PCNA ring (white surface and ribbons) with the ERCC6L2 aPIP-box peptide (green sticks). (K) Overview of the hydrogen-bond interaction network between the ERCC6L2 aPIP-box peptide (green) and PCNA (white). Hydrogen bonds are shown as yellow dotted lines. (L) Hydrophobic pocket on PCNA surface (white) with conserved residues that form “hydrophobic plug” (Leu801, Cys804, and Phe806; shown as green sticks) in the ERCC6L2 aPIP-box peptide. (M) Magnified view of the boxed region in (I). (N) Magnified view of the hydrogen-bond interaction network between the ERCC6L2 aPIP-box peptide (green) and PCNA (white, labels in italics). Hydrogen bonds are shown as yellow dotted lines. Intramolecular hydrogen bonds between ERCC6L2 aPIP-box residues are also shown. (H) and (I) Box and whisker plots. […] (A), (B), (C), (E) Scale bar, 5 μm.
U2OS cells (ATCC) were grown in 24 well plates. Where indicated, cells were transfected with the YFP constructs […] with siRNAs. […] Samples were analyzed by confocal microscopy using Olympus FV1200 or Zeiss 880 Airyscan microscopes, or using EVOS M7000 Imaging System.

His-tagged human PCNA [2] = target: T1, His-tagged human PCNA; assay: ITC; 25°C, PBS with 1 mM β-mercaptoethanol; 15 μM PCNA in the chamber, 215 μM ERCC6L2 aPIP peptide injected in 20 steps of 2 μL; single set of independent binding sites model; conditions: both partners purified
His-tagged human PCNA [3] = target: T1, His-tagged human PCNA; assay: pull-down; biotinylated peptides immobilised on magnetic streptavidin beads, incubated with purified His-tagged PCNA 1 h at 4°C in 50 mM Tris-HCl pH 8, 150 mM NaCl, 1 mM DTT, 0.2% Triton X-; anti-PCNA Western blot; conditions: both partners purified
CENP-A = assay: Colocalization of YFP-ERCC6L2 constructs with CENP-A; format: cell-based, human; conditions: U2OS cells; N(cells) > 1,400 for mutants
endogenous PCNA = assay: Colocalization of YFP-ERCC6L2 constructs with endogenous PCNA; format: cell-based, human; conditions: YFP-tagged, U2OS cells
Excerpt: Figure 4 ERCC6L2 contains an atypical PCNA-binding motif (A) ERCC6L2 colocalizes with PCNA at CENP-C-negative foci. U2OS cells transfected with YFP-ERCC6L2 were stained for CENP-C and PCNA after pre-extraction of soluble proteins. ERCC6L2-and PCNA-positive, but CENP-C negative foci (red arrows) are marked in zoomed images. (B) ERCC6L2 colocalizes with RPA at CENP-C-negative foci. U2OS cells transfected with YFP-ERCC6L2 were stained for CENP-C and RPA. ERCC6L2- and RPA-positive, but CENP-C-negative foci (red arrows) are marked in zoomed images. (C) Colocalization of the C-terminal ERCC6L2^701−1561 fragment with endogenous PCNA. (D) PCNA pull-down with biotinylated peptides. Biotinylated PIP-box and APIM motif peptides were bound to streptavidin beads and incubated with recombinant PCNA. Interactions were assayed by western blotting with PCNA antibody. Wild-type ZRANB3 PIP-box peptide (ZRANB3 PIP) was used as a positive control. Mutant ZRANB3 PIP-box peptide (Q519A, F525A, and F526A, ZRANB3 PIP^∗) served as a negative control. […] Interactions were assessed by western blotting against PCNA (shown on the right). […]
U2OS cells (ATCC) were grown in 24 well plates. […] Samples were analyzed by confocal microscopy using Olympus FV1200 or Zeiss 880 Airyscan microscopes, or using EVOS M7000 Imaging System. […]

Molecule | nuclear pattern resembling replication foci (U2OS cells) | further results
GST-tagged ERCC6L2^753−819 fragment (domain or fragment, human, UniProt Q5T890 753-819, looked up) AAEPLAKEACDLCSDFSDEEPVGATGIKTAKNKAPDSSKASSSPGQLTLLQCGFSKLLETKCKAVED | – | binding result (His-tagged human PCNA [1]): binds
701–1,098: C-terminal YFP-ERCC6L2 fragment (protein, UniProt Q5T890 701-1098, looked up, fragment, YFP tag, C-terminal YFP-ERCC6L2 fragment) REGQVEAGIMTATTWLKEGPPAHKLEMPRQPDCQECRGTEQAAEPLAKEACDLCSDFSDEEPVGATGIKTAKNKAPDSSKASSSPGQLTLLQCGFSKLLETKCKAVEDSDGNTASDDESSDEQPTCLSTEAKDAGCEKNQDSLGTSKHQKLDNILNPKEKHIFYKSEKILEQNISSKSDEKKIKNTDKHCILQNVTESEDSDVICPTQYTTERFPDNSIRFKPPLEGSEDSETEHTVKTRNNDNSRNTDDKRNGIISKKLSPENTTLKSILKRKGTSDISDESDDIEISSKSRVRKRASSLRFKRIKETKKELHNSPKTMNKTNQVYAANEDHNSQFIDDYSSSDESLSVSHFSFSKQSHRPRTIRDRTSFSSKLPSHNKKNSTFIPRKPMKCSNEKV | show patterns reminiscent of replication foci | –
797–1,098: C-terminal YFP-ERCC6L2 fragment (protein, UniProt Q5T890 797-1098, looked up, fragment, YFP tag, C-terminal YFP-ERCC6L2 fragment) KLLETKCKAVEDSDGNTASDDESSDEQPTCLSTEAKDAGCEKNQDSLGTSKHQKLDNILNPKEKHIFYKSEKILEQNISSKSDEKKIKNTDKHCILQNVTESEDSDVICPTQYTTERFPDNSIRFKPPLEGSEDSETEHTVKTRNNDNSRNTDDKRNGIISKKLSPENTTLKSILKRKGTSDISDESDDIEISSKSRVRKRASSLRFKRIKETKKELHNSPKTMNKTNQVYAANEDHNSQFIDDYSSSDESLSVSHFSFSKQSHRPRTIRDRTSFSSKLPSHNKKNSTFIPRKPMKCSNEKV | show patterns reminiscent of replication foci | –
820–1,098: C-terminal YFP-ERCC6L2 fragment (protein, UniProt Q5T890 820-1098, looked up, fragment, YFP tag, C-terminal YFP-ERCC6L2 fragment) SDEQPTCLSTEAKDAGCEKNQDSLGTSKHQKLDNILNPKEKHIFYKSEKILEQNISSKSDEKKIKNTDKHCILQNVTESEDSDVICPTQYTTERFPDNSIRFKPPLEGSEDSETEHTVKTRNNDNSRNTDDKRNGIISKKLSPENTTLKSILKRKGTSDISDESDDIEISSKSRVRKRASSLRFKRIKETKKELHNSPKTMNKTNQVYAANEDHNSQFIDDYSSSDESLSVSHFSFSKQSHRPRTIRDRTSFSSKLPSHNKKNSTFIPRKPMKCSNEKV | do not | –
SPGQLTLLQCGFSKLLETKCKA (peptide, UniProt Q5T890 795-816, looked up, ERCC6L2, human, residues 795-816, atypical PIP-box; Used for ITC and for co-crystallisation with PCNA; also called ERCC6L2 aPIP peptide; aPIP(ERCC6L2); source: synthetic peptide (Genscript)) [ERCC6L2^795−816 aPIP peptide] | – | Kd (His-tagged human PCNA [2]): ~6 µM
SKASSSPGQLTLLQCGFSKLLE (peptide, UniProt Q5T890 790-811, looked up, also: biotin, position not given here, ERCC6L2, human, residues 790-811, wild-type atypical PIP-box (consensus Q-[FL]-x-L-x-Q-C-G-[FL]); also called ERCC6L2 aPIP; biotinylated ERCC6L2^790−811 peptide; source: synthetic peptide (Genscript)) [Biotinylated aPIP ERCC6L2 peptide (residues 790–811)] | – | binding result (His-tagged human PCNA [3]): binds
728–1,098: C-terminal YFP-ERCC6L2 fragment (protein, UniProt Q5T890 728-1098, looked up, fragment, YFP tag, C-terminal YFP-ERCC6L2 fragment) PRQPDCQECRGTEQAAEPLAKEACDLCSDFSDEEPVGATGIKTAKNKAPDSSKASSSPGQLTLLQCGFSKLLETKCKAVEDSDGNTASDDESSDEQPTCLSTEAKDAGCEKNQDSLGTSKHQKLDNILNPKEKHIFYKSEKILEQNISSKSDEKKIKNTDKHCILQNVTESEDSDVICPTQYTTERFPDNSIRFKPPLEGSEDSETEHTVKTRNNDNSRNTDDKRNGIISKKLSPENTTLKSILKRKGTSDISDESDDIEISSKSRVRKRASSLRFKRIKETKKELHNSPKTMNKTNQVYAANEDHNSQFIDDYSSSDESLSVSHFSFSKQSHRPRTIRDRTSFSSKLPSHNKKNSTFIPRKPMKCSNEKV | show patterns reminiscent of replication foci | –
880–1,098: C-terminal YFP-ERCC6L2 fragment (protein, UniProt Q5T890 880-1098, looked up, fragment, YFP tag, C-terminal YFP-ERCC6L2 fragment) EKKIKNTDKHCILQNVTESEDSDVICPTQYTTERFPDNSIRFKPPLEGSEDSETEHTVKTRNNDNSRNTDDKRNGIISKKLSPENTTLKSILKRKGTSDISDESDDIEISSKSRVRKRASSLRFKRIKETKKELHNSPKTMNKTNQVYAANEDHNSQFIDDYSSSDESLSVSHFSFSKQSHRPRTIRDRTSFSSKLPSHNKKNSTFIPRKPMKCSNEKV | do not | –
YFP-ERCC6L2^1053−1247: YFP-tagged C-terminal ERCC6L2 fragment (protein, UniProt Q5T890 1053-1247, looked up, fragment, YFP tag, YFP-tagged C-terminal ERCC6L2 fragment) FSFSKQSHRPRTIRDRTSFSSKLPSHNKKNSTFIPRKPMKCSNEKVVNQEQSYESMDKFLDGVQEVAYIHSNQNVIGSSKAENHMSRWAAHDVFELKQFSQLPANIAVCSSKTYKEKVDADTLPHTKKGQQPSEGSISLPLYISNPVNQKKKKVYHTNQTTFIIGETPKGIRRKQFEEMASYFNSSSVNEFAKHI | – | colocalization with CENP-A (CENP-A): formed foci marked by the CENP-A protein
ERCC6L2^701−1247: C-terminal ERCC6L2 fragment (protein, UniProt Q5T890 701-1247, looked up, fragment, YFP tag, C-terminal ERCC6L2 fragment) REGQVEAGIMTATTWLKEGPPAHKLEMPRQPDCQECRGTEQAAEPLAKEACDLCSDFSDEEPVGATGIKTAKNKAPDSSKASSSPGQLTLLQCGFSKLLETKCKAVEDSDGNTASDDESSDEQPTCLSTEAKDAGCEKNQDSLGTSKHQKLDNILNPKEKHIFYKSEKILEQNISSKSDEKKIKNTDKHCILQNVTESEDSDVICPTQYTTERFPDNSIRFKPPLEGSEDSETEHTVKTRNNDNSRNTDDKRNGIISKKLSPENTTLKSILKRKGTSDISDESDDIEISSKSRVRKRASSLRFKRIKETKKELHNSPKTMNKTNQVYAANEDHNSQFIDDYSSSDESLSVSHFSFSKQSHRPRTIRDRTSFSSKLPSHNKKNSTFIPRKPMKCSNEKVVNQEQSYESMDKFLDGVQEVAYIHSNQNVIGSSKAENHMSRWAAHDVFELKQFSQLPANIAVCSSKTYKEKVDADTLPHTKKGQQPSEGSISLPLYISNPVNQKKKKVYHTNQTTFIIGETPKGIRRKQFEEMASYFNSSSVNEFAKHI | – | colocalization with endogenous PCNA (endogenous PCNA): efficiently colocalized with endogenous PCNA

Reference: PMC12003248, “ERCC6L2 mitigates replication stress and promotes centromere stability” (Cell Reports, 2023)
